The values below come from patent US20090220527A1 (MEDLMMUNE, published 2009).

In experiment [1] the target is T1, human EphA2 (form used in the affinity measurements not stated) (human, UniProt P29317 24-534, limits assumed).
T1 construct: The only EphA2 reagent it describes is human EphA2-Fc
Put plainly: method not stated; humanized clone from framework shuffling, reference chimeric Fab EA2.

Experiment [2] deals with T1, human EphA2 (form used in the affinity …). Description: surface plasmon resonance (BIAcore 3000), purified scFv. How it is done:
2A4, 2E7 and 12E2 as well as parental EA2 scFv and humanized 4H5 scFv were induced for expression in E. coli in a 1 L culture volume. The supernatants containing soluble, secreted scFv fragments were spun to remove cellular debris then passed over an anti-FLAG column (Sigma) to purify and isolate the variant proteins. The purified affinity optimized variants were analyzed by surface plasmon resonance detection using a BIAcore 3000 instrument (Pharmacia Biosensor, Uppsala, Sweden). […] (see FIG. 5).
Background: In SPR one partner is held on a chip, and binding of the other changes the refractive index at the surface.

For orientation: Kd means the constant that tells how readily two partners part at equilibrium. One may read the kon as the rate constant with which the complex forms. Lower therefore signals slower complex formation.

Residue numbers refer to the chain shown, from its start.

T1 sequence (P29317 24-534 limits assumed): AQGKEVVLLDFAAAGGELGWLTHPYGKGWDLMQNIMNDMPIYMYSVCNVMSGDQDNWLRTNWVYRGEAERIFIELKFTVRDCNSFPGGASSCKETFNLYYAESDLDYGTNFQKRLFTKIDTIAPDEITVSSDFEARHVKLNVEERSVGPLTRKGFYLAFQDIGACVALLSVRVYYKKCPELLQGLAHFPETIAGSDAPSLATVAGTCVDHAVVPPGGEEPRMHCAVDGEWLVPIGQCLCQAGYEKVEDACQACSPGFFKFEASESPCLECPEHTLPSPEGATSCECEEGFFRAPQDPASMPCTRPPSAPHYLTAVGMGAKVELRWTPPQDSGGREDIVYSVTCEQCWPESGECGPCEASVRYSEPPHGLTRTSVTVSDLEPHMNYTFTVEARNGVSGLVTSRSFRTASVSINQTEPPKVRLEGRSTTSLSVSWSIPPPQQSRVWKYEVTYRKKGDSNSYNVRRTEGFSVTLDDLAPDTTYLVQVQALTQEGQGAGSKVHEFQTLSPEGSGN

B1: humanized clone 4H5 (from framework shuffling of murine mAb EA2; format in this comparison not stated) (antibody, V domains shown)
VH: QVQLLESGGGLVQPGGSLRLSCAASGFTFSSYTMSWVRQAPGQALEWMGTISSGGTYTYYPDSVKGRFTISRDNAKNSLYLQMNSLRAEDTAVYYCAREAIFTYWGRGTLVTVSS
VL: DIQLTQSPSSLSASVGDRVTITCKASQDINNYLSWYQQKPGQAPRLLIYRANRLVDGVPDRFSGSGYGTDFTLTINNIESEDAAYYFCLKYDVFPYTFGQGTKVEIK
notes: Compared with chimeric Fab EA2; also called humanized Mab 4H5
Turning to B1, the “fold increase of affinity against chimeric Fab EA2” value in experiment [1] is roughly 20 fold.

B2: 2A4 scFv (affinity optimized combinatorial variant of humanized 4H5) (scFv)
scFv: QVQLLESGGGLVQPGGSLRLSCAASGFTFSSYTMSWVRQAPGQALEWMGTISSRGTYTYYPDSVKGRFTISRDNAKNSLYLQMNSLRAEDTAVYYCAREAIFTHWGRGTLVTVSSGGGGSGGGGSGGGGSDIQLTQSPSSLSASVGDRVTITCKASQDINNYHSWYQQKPGQAPRLLIYRANRLVDGVPDRFSGSGYGTDFTLTINNIESEDAAYYFCLKYNVFPYTFGQGTKVEIK
Turning to B2, in experiment [2], binding was put at a Kd of 5.6 nM and the kon was 652000 M⁻¹ s⁻¹.

B3: 12E2 scFv (affinity optimized combinatorial variant of humanized 4H5) (scFv)
scFv: B2 scFv with H104Y, H163L, V185F, N222D, V223R
In the case of B3, the kon in experiment [2] is 518000 M⁻¹ s⁻¹.

B4: 2E7 scFv (affinity optimized combinatorial variant of humanized 4H5) (scFv)
scFv: B2 scFv with H163G, V223R
As to B4, the kon in experiment [2] was 563000 M⁻¹ s⁻¹.
